Assay results as given in PMC2945410 (Journal of molecular biology, 2010).

Target: the molecule itself
Experiment: SEC

B1: EAL domain of TBD1265 from Thiobacillus denitrificans (aa 487-758) (domain or fragment)
chain: not shown
modifications: Se-Met substituted (for the crystals)
stoichiometry N: 2
